One experiment concerns the target T1, human 4-1BB (CD137) ECD (human, UniProt Q07011 24-186).
T1 construct: extracellular domain
The experiment in a line: ELISA on coated ECD, one antibody concentration (not given). A general note: An ELISA detects its analyte on a solid surface through an enzyme-linked reagent.

In the next experiment the target is T2, human CD40 ECD (human, UniProt P25942 21-193).
T2 construct: extracellular domain
Described as above.

Another experiment concerns the target T3, human CD271 ECD (human, UniProt P08138 29-250).
T3 construct: extracellular domain
T3 sequence (looked up): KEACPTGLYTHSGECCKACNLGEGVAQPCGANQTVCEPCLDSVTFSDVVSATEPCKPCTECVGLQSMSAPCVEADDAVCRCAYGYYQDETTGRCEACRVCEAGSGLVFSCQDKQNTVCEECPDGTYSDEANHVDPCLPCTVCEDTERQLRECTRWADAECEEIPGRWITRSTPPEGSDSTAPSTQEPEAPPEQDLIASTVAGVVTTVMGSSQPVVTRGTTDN
The description is as above.

For a further experiment, the target named is T4, human OX40-ECD.His G70A (human, UniProt P43489 29-214).
T4 construct: extracellular domain; not shown: C-terminal His-tag
T4 sequence (looked up): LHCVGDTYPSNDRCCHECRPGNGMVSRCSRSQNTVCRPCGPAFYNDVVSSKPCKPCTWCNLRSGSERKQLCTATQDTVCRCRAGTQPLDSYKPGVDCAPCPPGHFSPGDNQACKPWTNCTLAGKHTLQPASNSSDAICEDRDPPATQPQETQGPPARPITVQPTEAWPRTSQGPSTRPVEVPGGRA
The experiment can be described thus: ELISA, antibody coated, OX40-ECD.His mutant supernatant; relative to silent alanine substitutions.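 Further: captured OX40 mutant protein detected with HRP-labelled anti-His antibody, absorbance read-out, scaled to the mean signal of control mutants.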

The target in the next experiment is T5, human OX40-ECD.His E45A (human, UniProt P43489 29-214).
T5 construct: extracellular domain; not shown: C-terminal His-tag
T5 sequence (looked up): T4 sequence (looked up) with E17A, A42G
The experiment is described as above.

In a further experiment the target is T6, human OX40-ECD.His N146A (human, UniProt P43489 29-214).
T6 construct: extracellular domain; not shown: C-terminal His-tag
T6 sequence (looked up): T4 sequence (looked up) with A42G, N118A
Described as above.

In another experiment the target is T7, human OX40-ECD.His R108A (human, UniProt P43489 29-214).
T7 construct: extracellular domain; not shown: C-terminal His-tag
T7 sequence (looked up): T4 sequence (looked up) with A42G, R80A
The experiment is described as above.

Changes are numbered by the printed parent chain.

T1 sequence (Q07011 24-186): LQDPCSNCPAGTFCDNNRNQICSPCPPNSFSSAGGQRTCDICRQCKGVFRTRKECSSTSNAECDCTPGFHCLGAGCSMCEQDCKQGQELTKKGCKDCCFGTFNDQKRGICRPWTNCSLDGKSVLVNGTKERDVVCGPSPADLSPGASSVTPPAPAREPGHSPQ
T2 sequence (P25942 21-193): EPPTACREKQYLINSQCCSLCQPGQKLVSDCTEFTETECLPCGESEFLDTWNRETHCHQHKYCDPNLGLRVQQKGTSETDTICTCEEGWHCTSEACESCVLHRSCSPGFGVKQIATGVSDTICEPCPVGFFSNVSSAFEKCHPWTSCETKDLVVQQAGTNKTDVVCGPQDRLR
Experimental for human 4-1BB (CD137) ECD: (§1) Human OX40, CD40, 4-1BB (CD137) and CD271 ECD were coated on plates (Nunc) overnight at 4° C. After blocking and washing, testing antibodies were diluted in blocking buffer and added to the plates and incubated at room temperature for 1 h. The plates were then washed and subsequently incubated with secondary antibody goat anti-human IgG Fc-HRP (Bethyl) for 1 h. After washing, TMB substrate was added and the interaction was stopped by 2M HCl.
Experimental for human CD271 ECD: as §1
Experimental for human CD40 ECD: as §1
Experimental for human OX40-ECD.His E45A: (§2) After interacting with the supernatant that contains quantified OX40 mutants or human OX40-ECD.His protein, HRP conjugated anti-His antibody (1:5000, GenScript-A00612, CHN) was added as detection antibody. Absorbance was normalized according to the average of control mutants.
Experimental for human OX40-ECD.His G70A: as §2
Experimental for human OX40-ECD.His N146A: as §2
Experimental for human OX40-ECD.His R108A: as §2

B1: 1.134.9-u1-IgG1L (antibody, V domains shown)
VH: QVQLQESGPGLVKPSGTLSLTCAVSGGSISSYNWWSWVRQPPGKGLEWIGEIYHGGNTNYNPSLKSRVTMSVDNSKNQFSLKLSSVTAADTAVYYCARAPGDWGGSPYFDFWGQGTLVTVSS
VL: SSELTQDPAVSVALGQTVRITCQGDNLRTYYASWYQQKPGQAPILLIYGRNKRPSGIPDRFSGSSSGNTASLTITGAQAEDEAAYYCNSRDSSGNPVVFGGGTKLTVL
notes: fully human IgG1, lambda
In the case of B1, the binding result with human 4-1BB (CD137) ECD, in the experiment with human CD40 ECD and with human CD271 ECD was “no binding” throughout. The “Fold Change” value with human OX40-ECD.His G70A was found to be 0.511; in the experiment with human OX40-ECD.His E45A, 1.02; with human OX40-ECD.His N146A it was 0.73; with human OX40-ECD.His R108A, 0.981.
